Results from patent publication US20160171150A1, “Chemical Modulators of Pro-Apoptotic BAX and BCL-2 Polypeptides” (Dana-Farber Cancer Institute, Inc., priority 2008, published 2016).

Molecular target: T1, BAX (Homo sapiens, UniProt Q07812)
T1 construct: Full-length human BAX-encoding cDNA (aa 1-192) was cloned into pTYB1 plasmid; made in house; host or cells: Escherichia coli BL21(DE3)
Test: NMR analysis of BIM SAHB binding to BAX
Details: 1H-15N correlation spectrum, BIM SAHB titration
Excerpt: To investigate the initiating event for BAX activation, the interaction of BAX with the BH3 ligand BIM SAHB was studied. […] BIM SAHB binding to BAX was monitored using Nuclear Magnetic Resonance (NMR) spectroscopy. Compared to the ^1H-^15N correlation spectrum of BAX, the addition of BIM SAHB broadened and shifted select NMR cross-peaks, indicating fast exchange between the bound and unbound conformations of BAX. The overall features of the NMR spectra were quite similar except for significant changes in the loop residues between α1 and α2 upon BIM SAHB binding. […] Significant changes were also observed for the side-chain NH2 of Q28, Q32, and Q52. […]
Screening by NMR is conducted by recording ^1H-^13C filtered-1D experiments of uniformly ^13C-labeled BAX at 25-50 μM concentrations, in the absence and presence of compounds at 50-100 μM concentrations. […] The weighted average chemical shift difference is calculated as √{square root over ({(ΔH)2+(ΔN/5)2}/2)} in p.p.m. and plotted as a function of the residue number of BAX. […] NMR experiments are processed with the NMRPipe spectral analysis package and chemical shifts variations measured with NMRView software. NMR spectra are recorded, for example, at 30° C. on Bruker Avance 600 MHz equipped with a z-shielded gradient, triple resonance cryoprobe.

T1 sequence (Q07812 whole entry, the tested form may be a part): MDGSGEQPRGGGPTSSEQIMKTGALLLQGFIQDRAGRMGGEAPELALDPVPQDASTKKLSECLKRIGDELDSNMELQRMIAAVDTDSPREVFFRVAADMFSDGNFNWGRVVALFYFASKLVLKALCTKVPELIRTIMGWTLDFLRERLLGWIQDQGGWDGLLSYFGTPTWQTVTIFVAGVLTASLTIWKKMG

## BIM SAHB: hydrocarbon-stapled BIM BH3 peptide (SEQ ID NO:3), Stabilized Alpha-Helix of BCL-2 domain; direct BAX-activating compound
  binding to BAX (chemical shift perturbation mapping): revealed interactions at a discrete subset of BAX residues
